Molecular target: Beta Amyloid 1-40 (human) (UniProt P05067)
Assay: fluorescence sandwich immunoassay on D2PA plate, 6E10 capture and anti-Aβ42 detection, Aβ40 as analyte

anti-Aβ42 (biotinylated detection antibody of the Covance Aβ-42 ELISA kit)
Cross-Reactivity: 0.06%

Source: patent US9013690
